Results taken from patent US20250154231A1.
Read-outs that look alike come from different tables or passages of the source.

Assays:
Test in all cases: cell-based or functional assay
[1] = molecular target: SARS-CoV-2 spike (S) protein, Omicron BA.2 (SARS-CoV-2) (UniProt P0DTC2)
[2] = molecular target: SARS-CoV-2 spike (S) protein, Omicron BA.2.75 (SARS-CoV-2) (UniProt P0DTC2)
[3] = molecular target: SARS-CoV-2 spike (S) protein, Omicron BA.3 (SARS-CoV-2) (UniProt P0DTC2)
[4] = molecular target: SARS-CoV-2 Beta spike (S) protein (SARS-CoV-2) (UniProt P0DTC2)
[5] = molecular target: SARS-CoV-2 Omicron BA.3 spike (S) protein (SARS-CoV-2) (UniProt P0DTC2)
[6] = molecular target: SARS-CoV-2 Victoria spike (S) protein (SARS-CoV-2) (UniProt P0DTC2)
[7] = molecular target: SARS-CoV-2 spike (S) protein, Victoria strain (SARS-CoV-2) (UniProt P0DTC2)
[8] = molecular target: SARS-CoV-2 Omicron BA.2 spike (S) protein, pseudovirus construct (SARS-CoV-2) (UniProt P0DTC2)
[9] = molecular target: SARS-CoV-2 Omicron BA.2 spike (S) protein (SARS-CoV-2) (UniProt P0DTC2)
[10] = molecular target: SARS-CoV-2 Gamma (P.1) spike (S) protein (SARS-CoV-2) (UniProt P0DTC2)
[11] = molecular target: SARS-CoV-2 spike (S) protein, Omicron BA.2 (SARS-CoV-2) (UniProt P0DTC2); remark: listed apart in the source
[12] = molecular target: SARS-CoV-2 Omicron BA.4/5 spike (S) protein (SARS-CoV-2) (UniProt P0DTC2)
[13] = molecular target: SARS-CoV-2 spike (S) protein, Omicron BA.4/5 (SARS-CoV-2) (UniProt P0DTC2)
[14] = molecular target: SARS-CoV-2 Omicron (BA.1) spike (S) protein, live virus isolate (SARS-CoV-2) (UniProt P0DTC2)
[15] = molecular target: SARS-CoV-2 spike (S) protein, Omicron BA.1 (SARS-CoV-2) (UniProt P0DTC2)
[16] = molecular target: SARS-CoV-2 Omicron BA.3 spike (S) protein, pseudovirus construct (SARS-CoV-2) (UniProt P0DTC2)
[17] = molecular target: SARS-CoV-2 Omicron BA.1 spike (S) protein of the live isolate (SARS-CoV-2) (UniProt P0DTC2)
[18] = molecular target: SARS-CoV-2 Gamma spike (S) protein (SARS-CoV-2) (UniProt P0DTC2)
[19] = molecular target: SARS-CoV-2 spike (S) protein, Omicron BA.1.1 (SARS-CoV-2) (UniProt P0DTC2)
[20] = molecular target: SARS-CoV-2 spike (S) protein, Omicron BA.2.75 (SARS-CoV-2) (UniProt P0DTC2); remark: listed apart in the source
[21] = molecular target: SARS-CoV-2 Delta spike (S) protein (SARS-CoV-2) (UniProt P0DTC2)
[22] = molecular target: SARS-CoV-2 Omicron BA.1 spike (S) protein, pseudovirus construct (SARS-CoV-2) (UniProt P0DTC2)
[23] = molecular target: SARS-CoV-2 Alpha spike (S) protein (SARS-CoV-2) (UniProt P0DTC2)
[24] = molecular target: SARS-CoV-2 Omicron BA.1.1 spike (S) protein (SARS-CoV-2) (UniProt P0DTC2)
[25] = molecular target: SARS-CoV-2 Beta (B.1.351) spike (S) protein (SARS-CoV-2) (UniProt P0DTC2)
[26] = molecular target: SARS-CoV-2 Omicron BA.1 spike (S) protein of the pseudovirus (SARS-CoV-2) (UniProt P0DTC2)
[27] = molecular target: SARS-CoV-2 Alpha (B.1.1.7) spike (S) protein (SARS-CoV-2) (UniProt P0DTC2)
[28] = molecular target: SARS-CoV-2 Omicron BA.1.1 spike (S) protein, pseudovirus construct (SARS-CoV-2) (UniProt P0DTC2)
[29] = molecular target: SARS-CoV-2 spike (S) protein, Victoria strain (SARS-CoV-2) (UniProt P0DTC2); remark: listed apart in the source
[30] = molecular target: SARS-CoV-2 spike (S) protein, Omicron BA.2.75.2 (SARS-CoV-2) (UniProt P0DTC2)
[31] = molecular target: SARS-CoV-2 spike (S) protein, Omicron BJ.1 (SARS-CoV-2) (UniProt P0DTC2)
[32] = molecular target: SARS-CoV-2 spike (S) protein, Omicron BA.2.3.20 (SARS-CoV-2) (UniProt P0DTC2)
[33] = molecular target: SARS-CoV-2 spike (S) protein, Omicron BA.2 (SARS-CoV-2) (UniProt P0DTC2); remark: listed apart in the source
[34] = molecular target: SARS-CoV-2 spike (S) protein, Omicron BA.4/5 (SARS-CoV-2) (UniProt P0DTC2); remark: listed apart in the source
[35] = molecular target: SARS-CoV-2 spike (S) protein, Omicron BA.2.75 (SARS-CoV-2) (UniProt P0DTC2); remark: listed apart in the source
[36] = molecular target: SARS-CoV-2 spike (S) protein, Omicron BA.4.6 (SARS-CoV-2) (UniProt P0DTC2)
[37] = molecular target: SARS-CoV-2 spike (S) protein, Omicron BA.3 (SARS-CoV-2) (UniProt P0DTC2); remark: listed apart in the source
[38] = molecular target: SARS-CoV-2 spike (S) protein, Victoria strain (SARS-CoV-2) (UniProt P0DTC2); remark: listed apart in the source
[39] = molecular target: SARS-CoV-2 spike (S) protein, Omicron BA.4/5 (SARS-CoV-2) (UniProt P0DTC2); remark: listed apart in the source
[40] = molecular target: SARS-CoV-2 spike (S) protein, Omicron BA.1 (SARS-CoV-2) (UniProt P0DTC2); remark: listed apart in the source
[41] = molecular target: SARS-CoV-2 spike (S) protein, Omicron BA.1.1 (SARS-CoV-2) (UniProt P0DTC2); remark: listed apart in the source
[42] = molecular target: SARS-CoV-2 spike (S) protein, Omicron BA.2.75 (SARS-CoV-2) (UniProt P0DTC2); remark: listed apart in the source
[43] = molecular target: SARS-CoV-2 spike (S) protein, Omicron BA.4.6 (SARS-CoV-2) (UniProt P0DTC2); remark: listed apart in the source

Chain of Omi-42 (antibody) (VH): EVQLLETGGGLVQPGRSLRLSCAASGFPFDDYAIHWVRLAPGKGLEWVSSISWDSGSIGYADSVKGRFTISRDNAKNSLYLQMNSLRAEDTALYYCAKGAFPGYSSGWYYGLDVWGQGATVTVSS
Chain of Omi-42 (antibody) (VL): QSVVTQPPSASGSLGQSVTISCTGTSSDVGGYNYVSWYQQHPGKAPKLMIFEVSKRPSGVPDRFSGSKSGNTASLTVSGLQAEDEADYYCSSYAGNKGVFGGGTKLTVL

Omi-42 (antibody)
pseudovirus neutralisation IC50 [1]: 0.021 µg/mL
pseudovirus neutralisation IC50 [2]: 0.003 µg/mL
pseudovirus neutralisation IC50 [3]: 0.025 µg/mL
IC50, authentic virus neutralization [4]: 0.011 µg/mL
IC50, pseudovirus neutralization [5]: 0.025 µg/mL
Authentic virus-IC50 [6]: 0.016 µg/mL
IC50, authentic virus neutralization [6]: 0.016 µg/mL
IC50, pseudovirus neutralization [6]: 0.013 µg/mL
Pseudovirus - IC50 [6]: 0.013 µg/mL
pseudovirus neutralisation IC50 [7]: 0.013 µg/mL
Pseudovirus - IC50 [8]: 0.021 µg/mL
IC50, authentic virus neutralization [9]: 0.031 µg/mL
IC50, pseudovirus neutralization [9]: 0.021 µg/mL
Authentic virus-IC50 [10]: 0.013 µg/mL
pseudovirus neutralisation IC50 [11]: 0.021 µg/mL
IC50, pseudovirus neutralization [12]: 0.013 µg/mL
pseudovirus neutralisation IC50 [13]: 0.013 µg/mL
Authentic virus-IC50 [14]: 0.014 µg/mL
pseudovirus neutralisation IC50 [15]: 0.007 µg/mL
Pseudovirus - IC50 [16]: 0.025 µg/mL
IC50, authentic virus neutralization [17]: 0.014 µg/mL
IC50, authentic virus neutralization [18]: 0.013 µg/mL
pseudovirus neutralisation IC50 [19]: 0.006 µg/mL
pseudovirus neutralisation IC50 [20]: 0.003 µg/mL
Authentic virus-IC50 [21]: 0.019 µg/mL
IC50, authentic virus neutralization [21]: 0.019 µg/mL
Pseudovirus - IC50 [22]: 0.007 µg/mL
IC50, authentic virus neutralization [23]: 0.024 µg/mL
IC50, authentic virus neutralization [24]: 0.017 µg/mL
IC50, pseudovirus neutralization [24]: 0.006 µg/mL
Authentic virus-IC50 [25]: 0.011 µg/mL
IC50, pseudovirus neutralization [26]: 0.007 µg/mL
Authentic virus-IC50 [27]: 0.024 µg/mL
Pseudovirus - IC50 [28]: 0.006 µg/mL
IC50, pseudoviral neutralization [29]: 0.013 µg/mL
IC50, pseudoviral neutralization [30]: 0.011 µg/mL
IC50, pseudoviral neutralization [31]: 0.01 µg/mL
IC50, pseudoviral neutralization [32]: 0.018 µg/mL
IC50, pseudoviral neutralization [33]: 0.021 µg/mL
IC50, pseudoviral neutralization [34]: 0.013 µg/mL
IC50, pseudoviral neutralization [35]: 0.003 µg/mL
IC50, pseudoviral neutralization [36]: 0.01 µg/mL

S309 (antibody)
pseudovirus neutralisation IC50 [37]: 0.311 µg/mL
pseudovirus neutralisation IC50 [38]: 0.079 µg/mL
pseudovirus neutralisation IC50 [39]: 0.689 µg/mL
pseudovirus neutralisation IC50 [40]: 0.113 µg/mL
pseudovirus neutralisation IC50 [41]: 0.142 µg/mL
pseudovirus neutralisation IC50 [42]: 0.202 µg/mL
IC50, pseudoviral neutralization [3]: 0.311 µg/mL
pseudovirus neutralisation IC50 [3]: 0.228 µg/mL
IC50, authentic virus neutralization [4]: 0.082 µg/mL
IC50, authentic virus neutralization [6]: 0.04 µg/mL
IC50, pseudoviral neutralization [7]: 0.079 µg/mL
pseudovirus neutralisation IC50 [7]: 0.13 µg/mL
IC50, authentic virus neutralization [9]: 5.04 µg/mL
IC50, pseudoviral neutralization [11]: 0.638 µg/mL
pseudovirus neutralisation IC50 [11]: 0.638 µg/mL
IC50, pseudoviral neutralization [13]: 0.689 µg/mL
pseudovirus neutralisation IC50 [13]: 1.04 µg/mL
IC50, pseudoviral neutralization [15]: 0.113 µg/mL
pseudovirus neutralisation IC50 [15]: 0.094 µg/mL
IC50, authentic virus neutralization [17]: 0.256 µg/mL
IC50, authentic virus neutralization [18]: 0.076 µg/mL
IC50, pseudoviral neutralization [19]: 0.142 µg/mL
pseudovirus neutralisation IC50 [19]: 0.138 µg/mL
IC50, authentic virus neutralization [21]: 0.113 µg/mL
IC50, authentic virus neutralization [23]: 0.078 µg/mL
IC50, authentic virus neutralization [24]: 1.12 µg/mL
IC50, pseudoviral neutralization [43]: 1.03 µg/mL
IC50, pseudoviral neutralization [29]: 0.079 µg/mL
IC50, pseudoviral neutralization [30]: 0.465 µg/mL
IC50, pseudoviral neutralization [31]: 0.431 µg/mL
IC50, pseudoviral neutralization [32]: 0.977 µg/mL
IC50, pseudoviral neutralization [33]: 0.638 µg/mL
IC50, pseudoviral neutralization [34]: 0.689 µg/mL
IC50, pseudoviral neutralization [35]: 0.202 µg/mL
IC50, pseudoviral neutralization [36]: 1.03 µg/mL
